Experimental data: patent publication US20050260733A1, “Proteases and uses thereof” (WYETH, priority 2004, published 2005)

Key:
Type in all cases: biochemical
[1] = target: T1, Bovine articular cartilage aggrecan (Glu373-Ala374 bond) (Bos taurus, UniProt P13608); assay: Western blotting of enzyme-digested aggrecan with neoepitope antibodies (MAb BC-3, MAb AGG-C1, MAb BC-14)
T1 construct: Bovine articular cartilage aggrecan was incubated with purified ADAMTS-8 or ADAMTS-4; from tissue; host or cells: bovine articular cartilage
Description: Detailed procedures for Western blot analyses are set forth below. Bovine articular cartilage aggrecan was incubated with purified ADAMTS-8 or ADAMTS-4 for 16 h at 37° C. in 50 mM Tris, pH 7.3, containing 100 mM NaCl and 5 mM CaCl2. Digestion products were deglycosylated by incubation for 2 h at 37° C. in the presence of chondroitinase ABC (Seikagaku America, Falmouth, Mass.; 1 mU/μg aggrecan), keratanase (Seikagaku; 1 mU/μg aggrecan) and keratanase II (Seikagaku; 0.02 mU/μg aggrecan). Digestion products were separated on 4-12% Bis-Tris NuPAGE SDS PAGE gels (Invitrogen, Carlsbad, Calif.) and then electrophoretically transferred to nitrocellulose. Immunoreactive products were detected by Western blotting with MAb AGG-C1 (0.04 μg/ml) or MAb BC-3 (Caterson, et al., supra). Alkaline-phosphatase-conjugated secondary goat anti-mouse IgG (Promega Corp., Madison, Wis.; 1:7500) was subsequently incubated with the membranes, and NBT/BCIP substrate (Promega) was used to visualize immunoreactive bands. All antibody incubations were performed for 1 h at room temperature, and the immunoblots were incubated with the substrate for 5-15 min at room temperature to achieve optimum color development.

α-2 macroglobulin = target: T2, α-2 macroglobulin (Homo sapiens, UniProt P01023); assay: α2-macroglobulin assay of proteolytic activity; settings: purified recombinant protein
T2 sequence (P01023 24-1474): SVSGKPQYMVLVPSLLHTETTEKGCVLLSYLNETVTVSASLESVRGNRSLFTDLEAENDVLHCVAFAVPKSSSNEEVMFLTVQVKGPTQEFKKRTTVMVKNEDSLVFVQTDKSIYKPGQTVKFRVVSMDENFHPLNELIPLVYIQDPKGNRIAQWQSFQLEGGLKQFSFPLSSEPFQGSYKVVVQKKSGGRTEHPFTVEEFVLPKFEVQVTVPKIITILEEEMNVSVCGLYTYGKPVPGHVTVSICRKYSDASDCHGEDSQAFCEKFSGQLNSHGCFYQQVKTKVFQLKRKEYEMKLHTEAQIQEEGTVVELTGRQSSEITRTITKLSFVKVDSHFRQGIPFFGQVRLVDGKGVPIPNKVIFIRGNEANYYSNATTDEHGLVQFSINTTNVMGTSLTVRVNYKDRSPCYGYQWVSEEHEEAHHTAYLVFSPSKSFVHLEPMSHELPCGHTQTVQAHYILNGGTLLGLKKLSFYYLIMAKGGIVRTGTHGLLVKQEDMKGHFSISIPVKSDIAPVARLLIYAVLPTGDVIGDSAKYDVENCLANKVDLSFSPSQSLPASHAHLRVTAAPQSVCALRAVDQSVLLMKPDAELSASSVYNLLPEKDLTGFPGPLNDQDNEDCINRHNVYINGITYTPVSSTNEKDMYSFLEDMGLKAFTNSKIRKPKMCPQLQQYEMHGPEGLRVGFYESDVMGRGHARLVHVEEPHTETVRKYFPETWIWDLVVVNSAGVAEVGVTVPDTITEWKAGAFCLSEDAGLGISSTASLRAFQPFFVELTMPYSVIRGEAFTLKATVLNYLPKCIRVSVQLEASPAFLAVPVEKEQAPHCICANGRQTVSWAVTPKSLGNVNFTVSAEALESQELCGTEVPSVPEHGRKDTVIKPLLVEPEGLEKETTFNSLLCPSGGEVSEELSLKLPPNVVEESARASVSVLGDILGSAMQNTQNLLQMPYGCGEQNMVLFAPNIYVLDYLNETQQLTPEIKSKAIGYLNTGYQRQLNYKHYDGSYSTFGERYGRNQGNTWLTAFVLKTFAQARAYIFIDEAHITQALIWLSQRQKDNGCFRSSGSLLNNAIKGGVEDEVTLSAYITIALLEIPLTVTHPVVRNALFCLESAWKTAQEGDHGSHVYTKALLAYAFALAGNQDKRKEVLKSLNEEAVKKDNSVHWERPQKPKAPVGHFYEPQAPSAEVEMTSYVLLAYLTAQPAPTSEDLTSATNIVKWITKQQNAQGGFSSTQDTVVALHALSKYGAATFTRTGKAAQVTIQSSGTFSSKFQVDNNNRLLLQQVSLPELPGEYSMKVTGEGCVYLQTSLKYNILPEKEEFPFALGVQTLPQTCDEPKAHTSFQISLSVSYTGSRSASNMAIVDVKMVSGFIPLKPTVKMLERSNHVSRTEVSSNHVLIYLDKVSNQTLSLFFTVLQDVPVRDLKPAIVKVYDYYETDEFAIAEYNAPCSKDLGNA

bovine aggrecan = bovine aggrecan (Bos taurus, UniProt P13608); assay: Competitive inhibition ELISA for aggrecanase activity (MAb AGG-C1); settings: bovine aggrecan digested 16 h at 37° C.; for amount of enzyme required to generate 45% inhibition in the competitive inhibition ELISA: then MAb AGG-C1 added
Description: Streptavidin-coated microtiter plates (Pierce, Rockford, Ill.) were coated with N-terminally biotinylated peptide aggc1 (b-aggc1) by incubating each well with 100 μl of b-aggc1 (100 ng/ml) for 1 h at room temperature. After washing 4 times with phosphate-buffered saline containing 0.01% Tween-20 (PBS-Tween), wells were blocked for 1 h at room temperature with 100 μl of PBS-Tween containing 2% BSA, followed by 4 washes with PBS-Tween.
In order to validate the neoepitope nature of MAb AGG-C1, competition mixtures (100 μl) comprised of MAb AGG-C1 (0.04 μg/ml) and 1.0-1000 nmol/ml of the synthetic peptides GGLPLPRNITEGE (SEQ ID NO:22), GGLPLPRNITEGE ARGSVILTVK-CONH2 (SEQ ID NO:23), undigested aggrecan, or ADAMTS-4 digested aggrecan were preincubated for 1 h at room temperature. Mixtures were then transferred to b-aggc1 coated wells. After a further incubation for 1 h at room temperature, the plates were washed 4 times with PBS-Tween then incubated for 1 h at room temperature with 100 μl of peroxidase-conjugated secondary goat anti-mouse IgG (1:10,000). Following 4 final washes with PBS-Tween, the wells were incubated with TMB 1 component microwell peroxidase substrate (BioFX Laboratories, Owings Mills, Md.). Color development was terminated by the addition of 0.18 M H2SO4, and the absorbance was monitored spectrophotometrically at 450 nm.
For the generation of a standard curve, bovine aggrecan (25 μg in 50 μl) was digested with ADAMTS-4 (0.001 ng-5 ng) for 16 h at 37° C. MAb AGG-C1 was then added to each digest (final antibody concentration of 0.04 μg/ml) and these mixtures were preincubated for 1 h at room temperature, followed by transfer to b-aggc1 coated plates and completion of the ELISA.
The standard curve was generated by incubating bovine aggrecan with increasing amounts of recombinant ADAMTS-4 for 16 h at 37° C. followed by addition of MAb AGG-C1 to each digest. Similar assays were performed to estimate the relative aggrecanase activity of ADAMTS-8.

bovine aggrecan, sequence (P13608 17-2364): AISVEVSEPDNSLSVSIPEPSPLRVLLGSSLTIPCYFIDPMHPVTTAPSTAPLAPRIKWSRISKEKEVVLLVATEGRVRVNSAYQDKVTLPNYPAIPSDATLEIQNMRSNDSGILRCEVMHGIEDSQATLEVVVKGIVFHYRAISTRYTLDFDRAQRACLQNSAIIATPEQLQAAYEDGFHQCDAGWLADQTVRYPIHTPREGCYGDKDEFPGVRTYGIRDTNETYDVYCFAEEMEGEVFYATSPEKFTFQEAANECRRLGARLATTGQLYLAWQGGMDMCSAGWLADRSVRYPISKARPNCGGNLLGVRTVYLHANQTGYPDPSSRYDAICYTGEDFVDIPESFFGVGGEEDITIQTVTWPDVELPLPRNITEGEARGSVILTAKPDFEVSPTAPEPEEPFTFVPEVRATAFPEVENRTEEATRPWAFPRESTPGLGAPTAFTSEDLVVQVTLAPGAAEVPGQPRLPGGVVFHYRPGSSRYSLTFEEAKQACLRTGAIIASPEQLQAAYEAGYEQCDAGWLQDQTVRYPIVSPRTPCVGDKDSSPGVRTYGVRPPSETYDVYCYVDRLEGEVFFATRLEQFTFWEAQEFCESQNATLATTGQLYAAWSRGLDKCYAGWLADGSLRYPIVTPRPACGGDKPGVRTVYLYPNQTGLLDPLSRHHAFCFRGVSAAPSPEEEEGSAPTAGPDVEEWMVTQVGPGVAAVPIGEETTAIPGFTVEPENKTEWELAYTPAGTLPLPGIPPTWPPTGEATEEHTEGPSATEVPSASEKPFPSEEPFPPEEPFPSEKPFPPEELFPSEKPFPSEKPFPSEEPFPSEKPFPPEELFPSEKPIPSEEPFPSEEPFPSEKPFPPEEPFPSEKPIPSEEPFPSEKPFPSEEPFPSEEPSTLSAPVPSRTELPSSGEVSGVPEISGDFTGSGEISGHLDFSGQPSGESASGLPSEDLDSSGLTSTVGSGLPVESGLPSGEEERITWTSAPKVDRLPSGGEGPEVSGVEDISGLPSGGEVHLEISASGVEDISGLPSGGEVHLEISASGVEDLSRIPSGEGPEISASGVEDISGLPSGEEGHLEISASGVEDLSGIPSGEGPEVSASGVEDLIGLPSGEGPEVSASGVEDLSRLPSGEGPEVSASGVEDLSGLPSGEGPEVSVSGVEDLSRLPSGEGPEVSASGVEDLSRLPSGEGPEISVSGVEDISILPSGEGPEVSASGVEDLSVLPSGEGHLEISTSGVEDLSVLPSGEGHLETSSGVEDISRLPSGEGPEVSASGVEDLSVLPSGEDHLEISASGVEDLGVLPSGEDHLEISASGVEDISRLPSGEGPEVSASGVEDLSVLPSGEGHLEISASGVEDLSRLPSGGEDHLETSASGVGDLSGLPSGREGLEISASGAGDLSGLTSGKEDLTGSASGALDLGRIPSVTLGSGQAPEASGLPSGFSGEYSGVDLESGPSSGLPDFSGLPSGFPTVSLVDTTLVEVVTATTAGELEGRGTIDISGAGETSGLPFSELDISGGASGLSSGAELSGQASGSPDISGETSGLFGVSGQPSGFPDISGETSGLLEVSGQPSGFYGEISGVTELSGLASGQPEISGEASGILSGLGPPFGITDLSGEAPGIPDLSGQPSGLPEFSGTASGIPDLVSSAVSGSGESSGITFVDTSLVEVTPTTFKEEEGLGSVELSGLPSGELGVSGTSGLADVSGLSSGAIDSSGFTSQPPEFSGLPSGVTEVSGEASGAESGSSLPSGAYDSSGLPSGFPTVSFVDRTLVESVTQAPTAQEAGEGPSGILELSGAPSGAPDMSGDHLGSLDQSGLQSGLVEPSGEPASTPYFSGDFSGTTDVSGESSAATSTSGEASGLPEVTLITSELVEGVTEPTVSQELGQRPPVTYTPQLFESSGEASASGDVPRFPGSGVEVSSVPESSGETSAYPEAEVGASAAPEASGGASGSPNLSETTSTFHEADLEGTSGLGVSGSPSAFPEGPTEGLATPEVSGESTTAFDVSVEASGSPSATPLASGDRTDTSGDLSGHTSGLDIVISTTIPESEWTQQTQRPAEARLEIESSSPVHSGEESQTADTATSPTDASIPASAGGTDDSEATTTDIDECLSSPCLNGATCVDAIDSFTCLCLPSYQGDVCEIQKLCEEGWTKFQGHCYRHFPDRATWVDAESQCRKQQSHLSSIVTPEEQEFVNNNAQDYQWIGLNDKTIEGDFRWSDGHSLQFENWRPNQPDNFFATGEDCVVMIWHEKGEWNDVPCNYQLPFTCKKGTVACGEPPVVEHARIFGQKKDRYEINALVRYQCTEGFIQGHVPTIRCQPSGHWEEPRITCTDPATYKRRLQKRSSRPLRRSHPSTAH
T1 sequence (P13608 17-2364): as above

B1: C-terminally truncated ADAMTS-8: Recombinant ADAMTS-8 in which the C-terminal thrombospondin and spacer domains were deleted (protein)
chain: MLPAPAAPRWPPLLLLLLLLLLPLARGAPARPAAGGQASELVVPTRLPGSAGELALHLSAFGKGFVLRLAPDDSFLAPEFKIERLGGSGRATGGERGLRGCFFSGTVNGEPESLAAVSLCRGLSGSFLLDGEEFTIQPQGAGGSLAQPHRLQRWGPAGARPLPRGPEWEVETGEGQRQERGDHQEDSEEESQEEEAEGASEPPPPLGATSRTKRFVSEARFVETLLVADASMAAFYGADLQNHILTLMSVAARIYKHPSIKNSINLMVVKVLIVEDEKWGPEVSDNGGLTLRNFCNWQRRFNQPSDRHPEHYDTAILLTRQNFCGQEGLCDTLGVADIGTICDPNKSCSVIEDEGLQAAHTLAHELGHVLSMPHDDSKPCTRLFGPMGKHHVMAPLFVHLNQTLPWSPCSAMYLTELLDGGHGDCLLDAPRAALPLPTGLPGRMALYQLDQQCRQIFGPDFRHCPNTSAQDVCAQLWCHTDGAEPLCHTKNGSLPWADGTPCGPGHLCSEGSCLPEEEVERPKPVADGGWAPWGPWGECSRTCGGGVQFSHRECKDPEPQNGGRYCLGRRAKYQSCHTEECPPDGKSFREQQCEKYNAYNYTDMDGNLLQWVPKYAGVSPRDRCKLFCRARGRSEFKVFEAKVIDGTLCGPETLAICVRGQCVKAGCDHVVDSPRKLDKCGVCGGKGNSCRKVSGSLTPTNYGYNDIVTIPAGATNIDVKQRSHPGVQNDGNYLALKTADGQYLLNGNLAISAIEQDILVKGTILKYSGSIATLERLQSFRPLPEPLTVQLLTVPGEVFPPKVKYTFFVPNDVDFSMQSSKERATTNIIQPLLHAQWVLGDWSECSSTCGAGWQRRTVECRDPSGQASATCNKALKPEDAKPCESQLCPL
- activity on aggrecan substrate compared with full-length recombinant ADAMTS-8 ([1]; AGG-C1 Western blotting): no more active than full-length recombinant ADAMTS-8
- proteolytic activity by α2-macroglobulin assay (α-2 macroglobulin): active

B2: ADAMTS-8: Recombinant human full-length ADAMTS-8 with carboxy-terminal Strep-tag expressed in CHO cells; elution fraction holds pro- and mature forms (protein)
chain: RFVSEARFVETLLVADASMAAFYGADLQNHILTLMSVAARIYKHPSIKNSINLMVVKVLIVEDEKWGPEVSDNGGLTLRNFCNWQRRFNQPSDRHPEHYDTAILLTRQNFCGQEGLCDTLGVADIGTICDPNKSCSVIEDEGLQAAHTLAHELGHVLSMPHDDSKPCTRLFGPMGKHHVMAPLFVHLNQTLPWSPCSAMYLTELLDGGHGDCLLDAPRAALPLPTGLPGRMALYQLDQQCRQIFGPDFRHCPNTSAQDVCAQLWCHTDGAEPLCHTKNGSLPWADGTPCGPGHLCSEGSCLPEEEVERPKPVADGGWAPWGPWGECSRTCGGGVQFSHRECKDPEPQNGGRYCLGRRAKYQSCHTEECPPDGKSFREQQCEKYNAYNYTDMDGNLLQWVPKYAGVSPRDRCKLFCRARGRSEFKVFEAKVIDGTLCGPETLAICVRGQCVKAGCDHVVDSPRKLDKCGVCGGKGNSCRKVSGSLTPTNYGYNDIVTIPAGATNIDVKQRSHPGVQNDGNYLALKTADGQYLLNGNLAISAIEQDILVKGTILKYSGSIATLERLQSFRPLPEPLTVQLLTVPGEVFPPKVKYTFFVPNDVDFSMQSSKERATTNIIQPLLHAQWVLGDWSECSSTCGAGWQRRTVECRDPSGQASATCNKALKPEDAKPCESQLCPLGSGSAWSHPQFEK
- cleavage site specificity of aggrecanase activity ([1]; BC-3 and AGG-C1 Western blots): specific for the Glu^373-Ala^374 site
- MAb BC-3 immunoreactive bands (cleavage at Glu373-Ala374) ([1]; MAb BC-3 Western blot, 16 h at 37° C.): increased in intensity with increasing amounts
- efficiency of cleaving cartilage aggrecan at Glu373-Ala374 compared with ADAMTS-4 ([1]; same Western blots, FIGS. 6A-6C): less efficient than ADAMTS4
- proteolytic activity by α2-macroglobulin assay (α-2 macroglobulin): verified
- amount of enzyme required to generate 45% inhibition in the competitive inhibition ELISA (bovine aggrecan): 46.6 ± 4.8 pM

B3: ADAMTS-4: Recombinant ADAMTS-4 used for comparison, spontaneously truncated and lacking the spacer domain (protein)
chain: FASLSRFVETLVVADDKMAAFHGAGLKRYLLTVMAAAAKAFKHPSIRNPVSLVVTRLVILGSGEEGPQVGPSAAQTLRSFCAWQRGLNTPEDSDPDHFDTAILFTRQDLCGVSTCDTLGMADVGTVCDPARSCAIVEDDGLQSAFTAAHELGHVFNMLHDNSKPCISLNGPLSTSRHVMAPVMAHVDPEEPWSPCSARFITDFLDNGYGHCLLDKPEAPLHLPVTFPGKDYDADRQCQLTFGPDSRHCPQLPPPCAALWCSGHLNGHAMCQTKHSPWADGTPCGPAQACMGGRCLHMDQLQDFNIPQAGGWGPWGPWGDCSRTCGGGVQFSSRDCTRPVPRNGGKYCEGRRTRFRSCNTEDCPTGSALTFREEQCAAYNHRTDLFKSFPGPMDWVPRYTGVAPQDQCKLTCQAQALGYYYVLEPRVVDGTPCSPDSSSVCVQGRCIHAGCDRIIGSKKKFDKCMVCGGDGSGCSKQSGSFRK
- amount of enzyme required to generate aggrecan cleavage product giving 45% inhibition in the competitive inhibition ELISA (bovine aggrecan; FIG. 7 standard curve): approximately 1 ng
- amount of enzyme required to generate 45% inhibition in the competitive inhibition ELISA (bovine aggrecan): 0.0135 pM
